Laboratory results as given in the RNAGym collection of RNA variant scans (doi:10.7554/elife.90254).

B1: LINE1-full (parent)
chain: UACGUAGGUGGUUUUCCCCUGAUAGUGCUAAGGGGGCCUGGAAGUUUGGACUGGGCAGAGCUCAACACAGCGUGGCAAAGUGGCUGUGGCUAGACUGCCUCUCUGGAUUCCUCGUCACUCAGCAGGGCAUCUCUGAGAGAAAUGCC

Variants of: B1
Assay: self-cleavage, relative activity (ratio to wild type); higher = more cleavage; in vitro, sequencing; the parent is a self-cleaving ribozyme

Row | Variant | self-cleavage
1 | U108C U109C | 1.51
2 | C113A U115C | 1.5
3 | C113A U115A | 1.55
4 | C113G U119A | 1.38
5 | U108C G126U | 2.03
6 | A107U U134G | 1.9
7 | U108A A117G | 1.97
8 | U109G G127A | 1.53
9 | U108A A142G | 1.55
10 | C110U A136C | 2.76
11 | U115C A141U | 1.27
12 | C113U U130C | 1.77
13 | U109C C133U | 1.37
14 | C111A A117G | 1.69
15 | U115C U134C | 1.61
16 | U108A U115C | 1.52
17 | U108C U134G | 2.43
18 | U112C U134C | 1.23
19 | U112C U134A | 0.61
20 | C116A A142C | 1.54
21 | U112C G127A | 1.35
22 | U112A U119C | 2.45
23 | U112A U119A | 0
24 | G114A A136U | 2.15

Row | Variant | self-cleavage
25 | C113U A142G | 0.91
26 | G114A A129G | 1.26
27 | G114A A129U | 1.33
28 | U108C U119C | 2
29 | C116U G125C | 1.54
30 | C113G G125U | 1.66
31 | U115A U143A | 1.36
32 | U115A U143C | 1.54
33 | U108G U130A | 0.77
34 | U112A U143C | 0.83
35 | C113U A121G | 0.68
36 | A107U U119C | 2.16
37 | C116U A138U | 1.41
38 | C113U C123U | 1.35
39 | A107G G125U | 1.96
40 | U115A G122C | 1.09
41 | C116A A124G | 1.25
42 | C111A U130A | 1.16
43 | U112C G139A | 1.36
44 | A107G G135A | 1.64
45 | U108C C111A | 1.76
46 | U115C A129G | 1.64
47 | C110U U119C | 1.39
48 | U109C A136U | 1.45

Row | Variant | self-cleavage
49 | C113G C123U | 1.01
50 | U112A A121G | 1.82
51 | U112A A121C | 1.92
52 | G114C A138G | 1.41
53 | A107U A121G | 1.62
54 | G114A A141G | 0.89
55 | U115C C131A | 0.47
56 | U109G U119C | 0.49
57 | C110U U112A | 1.4
58 | U115A G137A | 1.81
59 | C111U A141G | 0.45
60 | G114A G122U | 1.5
61 | C113U A117G | 1.54
62 | C113U A117C | 1.68
63 | U115C A136U | 1.99
64 | U112C U115C | 1.29
65 | C113U U115C | 1
66 | C113U U115A | 1.05
67 | U115C A117G | 1.4
68 | A107U A142G | 2.36
69 | C110U A124G | 0.82
70 | C113U G126A | 1.62
71 | U109C A138G | 1.69
72 | A107G U108C | 1.42

Row | Variant | self-cleavage
73 | U115G C145U | 1.1
74 | C113U A129U | 1.86
75 | C113U A129G | 1.34
76 | G114A U134C | 1.13
77 | C116U U132C | 0.91
78 | U108C U143C | 1.75
79 | U108C U143G | 1.23
80 | U112C A129U | 1.67
81 | C111U U130C | 1.75
82 | A107G U115G | 0
83 | C116A U132A | 0.67
84 | A107G U109C | 1.14
85 | C110A U112C | 1.56
86 | U112G G139A | 1.15
87 | U109A U119A | 1.36
88 | C116U A121G | 1.57
89 | U115G A136G | 1.53
90 | U108C A121G | 1.68
91 | U108C A121U | 2.15
92 | U109C C113U | 1.28
93 | U109C C113A | 0.99
94 | U109G A124G | 1.04
95 | U115A C128U | 1.23
96 | U115C G144A | 2.69

Row | Variant | self-cleavage
97 | C113A U130C | 0.44
98 | U108C A141G | 1.65
99 | U108G A121U | 1.86
100 | C113U U119A | 0.82
101 | U109A U143C | 1.8
102 | U109A U143A | 1.75
103 | C111A | 1.25
104 | C111U | 1.38
105 | A107G U130C | 2.26
106 | A107U U112A | 2.03
107 | A107G G126U | 1.48
108 | A107G G126C | 2.78
109 | C113U C131G | 1.32
110 | U112C G135A | 1.44
111 | U109G C145A | 0.34
112 | U115A A136G | 1.68
113 | U109C U143A | 1.18
114 | U109C U143G | 0.87
115 | U108A A136U | 1.24
116 | U108A A136G | 0.53
117 | C116U A129G | 0.93
118 | U109C C116U | 1.5
119 | U109A A142G | 1.39
120 | U109C U115C | 1.22

Row | Variant | self-cleavage
121 | U109C U115A | 0.82
122 | U108A A138G | 1.79
123 | U112C C145A | 1.39
124 | U108A U132G | 2.7
125 | U109A C123U | 1.34
126 | G114A A138G | 1.47
127 | G114A U119C | 1.2
128 | U115A U132A | 1.03
129 | U115A U132G | 1.84
130 | U115A U132C | 1.88
131 | U109A U130C | 1.54
132 | U112A U132A | 1.69
133 | C113U A140G | 0.69
134 | U108C A136G | 1.83
135 | U109C G126A | 1.83
136 | U112C G125A | 1.6
137 | A107U A136G | 1.92
138 | U112C C120U | 1.37
139 | G114A U132A | 1.64
140 | U108A A124G | 1.55
141 | C116A U143C | 0.71
142 | U109C C111U | 1.31
143 | C110U A141U | 0.84
144 | A117C A121U | 2.02

Row | Variant | self-cleavage
145 | U112C A117C | 1.38
146 | U108A A129G | 0.99
147 | G114U A141G | 1.86
148 | U115C A140U | 1.39
149 | U115C A140G | 1.58
150 | U109G A121G | 0
151 | A107G U143A | 1.51
152 | C110U | 1.51
153 | C110A | 1.35
154 | C110G | 1.04
155 | U109G C128U | 1.17
156 | U115C A121U | 2.06
157 | U115C A121C | 1.66
158 | U115C A121G | 1.42
159 | U115A U134A | 0.95
160 | U115A A129G | 1.9
161 | U115A A129U | 1.04
162 | U112C A140G | 0.83
163 | C116U A140U | 0.71
164 | C116U A141G | 1.42
165 | U115C U143G | 2.45
166 | U112C U132G | 1.53
167 | A107U U109A | 1.98
